From PMC3847041, “Role of N-Cadherin cis and trans Interfaces in the Dynamics of Adherens Junctions in Living Cells” (PLoS ONE, 2013)

Experiments:
[1] = target: N-cadherin-W2A fluorescent fusion protein (strand-swap mutant); assay: FRET or BRET; acceptor bleach FRET at junctions between living COS7 cells of two mixed populations, one expressing the Venus (acceptor) and the other the Cerulean (donor) copy; trans interaction across the junction; FRET ratio = (IpostDonor - IpreDonor)/IpostDonor
[2] = target: N-cadherin-W2A fluorescent fusion protein (strand-swap mutant); assay: FRET or BRET; ratiometric FRET (Venus to Cerulean fluorescence over time) at a junction between one Venus- and one Cerulean-expressing living COS7 cell; 100 ms interval for 35 sec; baseline 10-15 sec, then the Ca2+ chelator BAPTA added to 20 mM final
[3] = target: N-cadherin-V81D/V174D fluorescent fusion protein (cis double mutant); assay: as above
[4] = target: N-cadherin-V81D/V174D fluorescent fusion protein (cis double mutant); assay: FRET or BRET; acceptor bleach FRET at junctions between living COS7 cells of two mixed populations, one expressing the Venus (acceptor) and the other the Cerulean (donor) copy; trans interaction across the junction; FRET ratio = (IpostDonor - IpreDonor)/IpostDonor
[5] = target: N-cadherin-R14E fluorescent fusion protein (X-dimer mutant); assay: FRET or BRET; ratiometric FRET (Venus to Cerulean fluorescence over time) at a junction between one Venus- and one Cerulean-expressing living COS7 cell; 100 ms interval for 35 sec; baseline 10-15 sec, then the Ca2+ chelator BAPTA added to 20 mM final
[6] = target: N-cadherin-R14E fluorescent fusion protein (X-dimer mutant); assay: FRET or BRET; acceptor bleach FRET at junctions between living COS7 cells of two mixed populations, one expressing the Venus (acceptor) and the other the Cerulean (donor) copy; trans interaction across the junction; FRET ratio = (IpostDonor - IpreDonor)/IpostDonor
[7] = target: the molecule itself; assay: FRET or BRET; ratiometric FRET (Venus to Cerulean fluorescence over time) at a junction between one Venus- and one Cerulean-expressing living COS7 cell; 100 ms interval for 35 sec; baseline 10-15 sec, then the Ca2+ chelator BAPTA added to 20 mM final
[8] = target: the molecule itself; assay: FRET or BRET; acceptor bleach FRET at junctions between living COS7 cells of two mixed populations, one expressing the Venus (acceptor) and the other the Cerulean (donor) copy; trans interaction across the junction; FRET ratio = (IpostDonor - IpreDonor)/IpostDonor

N-cadherin-W2A fluorescent fusion protein (strand-swap mutant)
FRET ratio (acceptor bleach) [1]: 29.4%

N-cadherin-W2A fluorescent fusion protein (strand-swap mutant) (natural protein)
ratiometric FRET ratio before BAPTA [2]: 98.6%

N-cadherin-V81D/V174D fluorescent fusion protein (cis double mutant) (natural protein)
ratiometric FRET ratio before BAPTA [3]: 99.6%
FRET ratio (acceptor bleach) [4]: 22.4%

N-cadherin-R14E fluorescent fusion protein (X-dimer mutant) (natural protein)
ratiometric FRET ratio after 20 mM BAPTA [5]: 98.8%
ratiometric FRET ratio before BAPTA [5]: 99.2%
FRET ratio (acceptor bleach) [6]: 14%

B1: N-cadherin-WT fluorescent fusion protein (N-cadherin-Venus / N-cadherin-Cerulean) (natural protein, UniProt P15116 160-906, looked up)
chain: DWVIPPINLPENSRGPFPQELVRIRSDRDKNLSLRYSVTGPGADQPPTGIFIINPISGQLSVTKPLDRELIARFHLRAHAVDINGNQVENPIDIVINVIDMNDNRPEFLHQVWNGSVPEGSKPGTYVMTVTAIDADDPNALNGMLRYRILSQAPSTPSPNMFTINNETGDIITVAAGLDREKVQQYTLIIQATDMEGNPTYGLSNTATAVITVTDVNDNPPEFTAMTFYGEVPENRVDVIVANLTVTDKDQPHTPAWNAAYRISGGDPTGRFAILTDPNSNDGLVTVVKPIDFETNRMFVLTVAAENQVPLAKGIQHPPQSTATVSVTVIDVNENPYFAPNPKIIRQEEGLHAGTMLTTLTAQDPDRYMQQNIRYTKLSDPANWLKIDPVNGQITTIAVLDRESPNVKNNIYNATFLASDNGIPPMSGTGTLQIYLLDINDNAPQVLPQEAETCETPEPNSINITALDYDIDPNAGPFAFDLPLSPVTIKRNWTINRLNGDFAQLNLKIKFLEAGIYEVPIIITDSGNPPKSNISILRVKVCQCDSNGDCTDVDRIVGAGLGTGAIIAILLCIIILLILVLMFVVWMKRRDKERQAKQLLIDPEDDVRDNILKYDEEGGGEEDQDYDLSQLQQPDTVEPDAIKPVGIRRLDERPIHAEPQYPVRSAAPHPGDIGDFINEGLKAADNDPTAPPYDSLLVFDYEGSGSTAGSLSSLNSSSSGGDQDYDYLNDWGPRFKKLADMYGGGDD
notes: a fluorescent protein is inserted into the second extracellular cadherin repeat at position 151 of the mature protein; numbers count on: the mature protein; Self-association in trans: one cell population expresses the Venus copy (FRET acceptor), the other the Cerulean copy (FRET donor); both are written as this one molecule; also called N-cadherin-Venus-WT; WT-N-cadherin; source: COS7 cells, …
ratiometric FRET ratio after 20 mM BAPTA [7]: 89.6%
ratiometric FRET ratio before BAPTA [7]: 99.6%
FRET ratio (acceptor bleach) [8]: 19.9%
